According to patent US12723255B2, “Herbicide tolerance genes and methods of use thereof” (priority 2014, dated 2026):
Positions count from the first letter of the chain named.

Key:
F1 hybrid maize plants = experiment: trait efficacy field trial, quizalofop-P pressure screening, F1 hybrid; type: in vivo; conditions: crop injury percentage; for 4X Qizalofop-P CIPV4 / 4X Qizalofop-P CIPV8: 0.32 lb ai/acre at VE-V2, V4, V8; for 8X Qizalofop-P CIPV4 / 8X Qizalofop-P CIPV8: 0.64 lb ai/acre at VE-V2, V4, V8; for 16X Qizalofop-P CIPV4 / 16X Qizalofop-P CIPV8: 1.28 lb ai/acre at VE-V2, V4, V8
Experimental: Separate trait efficacy field trials for quizalofop-P and 2,4-D pressure screening were conducted at one location each with F1 hybrid transgenic plants produced by crossing an inbred plant containing maize event MON89034 with an R1 plant containing MON-HT1, MON-HT2, MON-HT8, MON-HT9, and MON-HT10 with and without operably linked CTP sequences. Transgenic F1 hybrid plants containing maize events NK603×MON89034 were used for comparison as a control.
In the trait efficacy field trial for quizalofop-P tolerance, one of three herbicide treatments was used: (1) quizalofop-P (Assure II) at 0.32 lb ai/acre (4×) plus 0.25% v/v non-ionic surfactant (NIS) applied at VE-V2 growth stage followed by the same at V4 growth stage followed by the same at V8 growth stage; (2) quizalofop-P at 0.64 lb ai/acre (8×) plus 0.25% v/v NIS applied at VE-V2 growth stage followed by the same at V4 growth stage followed by the same at V8 growth stage; or (3) quizalofop-P at 1.28 lb ai/acre (16×) plus 0.25% v/v NIS applied at VE-V2 growth stage followed by the same at V4 growth stage followed by the same at V8 growth stage. Plots were visually rated as above. […] The injury rating for the control plants after all quizalofop-P application was 100%. Error was calculated using LSD (0.05).

[1] = tested on: mRNA transcribed from the transgene cassette; experiment: Quantigene analysis of transgene mRNA expression in leaf samples; conditions: normalized to maize housekeeping genes, average of eight samples
Source text: Leaf samples were collected from the plants containing transgene cassettes encoding MON-HT1, MON-HT2, and MON-HT8 with and without CTP sequences to determine expression of the mRNA transcribed from the transgene cassette encoding the engineered proteins. Quantigene® analysis was done on the leaf sample extracts to determine mRNA expression of the transgene cassette. For these assays, the probe was to the common 3′-UTR sequence present in each expression cassette used to generate the transgenic plants. Relative expression was calculated by normalizing to maize housekeeping genes. A leaf sample was collected from each of eight plants for each construct configuration used to make the transgenic plants, and the reported relative mRNA expression data is an average of the eight samples with standard error.

[2] = type: biochemical
Experimental: To analyze these engineered proteins for activity in higher temperatures, the in vitro enzyme assay in Example 1 was modified to specify pre-heating all of the assay components to the desired temperature for 5 minutes before combining the components and then maintaining the reaction at the desired temperature for the duration of the reaction. To normalize the assay measurements, quizalofop-P was used as the substrate for the reaction and enzyme activity was normalized based on the 25° C. readings. Using these parameters, the temperature at which the enzyme activity was half of maximum (T1/2) was calculated. The T1/2 for MON-HT55 was calculated to be 29° C., and the T1/2 for wild-type RdpA was calculated to be 38° C. (FIG. 2A).
Enzyme activity over a range of temperatures was analyzed in-depth for MON-HT1, MON-HT2, MON-HT7, and MON-HT8. These assays were conducted as described above. Quizalofop-P or 2,4-D was used as the substrate for these reactions and activity was normalized based on the activity of the wild-type enzyme at 25° C. The activity curves obtained are presented in FIG. 2B (with quizalofop-P as the substrate) and FIG. 2C (with 2,4-D as the substrate). Using quizalofop-P as the substrate, MON-HT55 was the most temperature sensitive, with a T1/2 of 29° C. […] MON-HTI was slightly less temperature sensitive, with a T1/2 about 1° C. higher than the wild-type enzyme.

transgenic maize plants = experiment: trait efficacy field trials with homozygous inbred plants, CTP evaluation; type: in vivo; conditions: crop injury percentage
Source text: To evaluate different chloroplast targeting peptides (CTP), plant transformation vectors were constructed, each comprising a recombinant DNA molecule optimized for monocot expression and encoding MON-HTI (SEQ ID NO: 16), MON-HT2 (SEQ ID NO:20), and MON-HT8 (SEQ ID NO:39), MON-HT9 (SEQ ID NO:42), or MON-HT10 (SEQ ID NO:45). The vectors were created using the same combination of promoter, leader, intron, and 3′-UTR, but with one of three separate CTPs (A, B, or C) or without a CTP operably linked to the protein-coding sequence. The DNA constructs were used to transform immature maize (LH244) embryos using Agrobacterium tumifaciens and standard methods known in the art. Regenerated RO transgenic plantlets were grown in the green house. The R0 plants were selfed to generate R1 homozygous seed. The R0 plants were also used as the male to cross with inbred plants containing maize event MON89034 to generate segregating F1 hybrid seed for trait efficacy field trials.
Separate trait efficacy field trials for quizalofop-P and 2,4-D were conducted at two locations each with the homozygous inbred transgenic plants (R2 or R4 generation). In these field trials, one of two herbicide treatments was used: (1) quizalofop-P (Assure II) at 0.16 lb ai/acre (2×) plus 0.25% v/v non-ionic surfactant (NIS) applied at V4 growth stage followed by the same at V8 growth stage; or (2) 2,4-D amine at 2 lb ae/acre (2×) plus 0.25% v/v non-ionic surfactant (NIS) applied to V4 followed by V8. Injury ratings (crop injury percentage at V4 (CIPV4) or V8 (CIPV8)) were taken 10 to 14 days after the V4 and V8 applications. Error was calculated using LSD (0.05).

[3] = CTP A, 0.16 lb ai/acre at V4, V8, LSD (0.05) = 1.45
[4] = CTP A, 0.16 lb ai/acre at V4, V8, LSD (0.05) = 2.2
[5] = CTP A, 2 lb ae/acre at V4, V8, LSD (0.05) = 0.95
[6] = CTP A, 2 lb ae/acre at V4, V8, LSD (0.05) = 1.6
[7] = CTP B, 0.16 lb ai/acre at V4, V8
[8] = CTP C, 0.16 lb ai/acre at V4, V8
[9] = no CTP, 0.16 lb ai/acre at V4, V8

B1: MON-HT1: engineered oxygenase protein, amino acid sequence SEQ ID NO:14 (protein)
chain: MHAALTPLTNKYRFIDVQPLTGVLGAEITGVDLREPLDDSTWNEILDAFHTYQVIYFPGQAITNEQHIAFSRRFGPVDPVPILKSIEGYPEVQMIRREANESSRFIGDDWHTDSTFLDAPPAAVVMRAIEVPEYGGDTGFLSMYSAWETLSPTMQATIEGLNVVHSATKVFGSLYQATNWRFSNTSVKVMDVDAGDRETVHPLVVTHPVTGRRALYCNQVYCQKIQGMTDAESKSLLQFLYEHATKFDFTCRVRWKKDQVLVWDNLCTMHRAVPDYAGKFRYLTRTTVAGDKPSR
4X Qizalofop-P CIPV4 (F1 hybrid maize plants; CTP A): 0 | 4X Qizalofop-P CIPV8 (F1 hybrid maize plants; CTP A): 7.5 | 8X Qizalofop-P CIPV4 (F1 hybrid maize plants; CTP A): 2.5 | 8X Qizalofop-P CIPV8 (F1 hybrid maize plants; CTP A): 10 | 16X Qizalofop-P CIPV4 (F1 hybrid maize plants; CTP A): 5 | 16X Qizalofop-P CIPV8 (F1 hybrid maize plants; CTP A): 15 | 4X Qizalofop-P CIPV4 (F1 hybrid maize plants; CTP B): 2.5 | 4X Qizalofop-P CIPV8 (F1 hybrid maize plants; CTP B): 5 | 8X Qizalofop-P CIPV4 (F1 hybrid maize plants; CTP B): 2.5 | 8X Qizalofop-P CIPV8 (F1 hybrid maize plants; CTP B): 7.5 | 16X Qizalofop-P CIPV4 (F1 hybrid maize plants; CTP B): 2.5 | 16X Qizalofop-P CIPV8 (F1 hybrid maize plants; CTP B): 20 | 4X Qizalofop-P CIPV4 (F1 hybrid maize plants; CTP C): 0 | 4X Qizalofop-P CIPV8 (F1 hybrid maize plants; CTP C): 5 | 8X Qizalofop-P CIPV4 (F1 hybrid maize plants; CTP C): 2.5 | 8X Qizalofop-P CIPV8 (F1 hybrid maize plants; CTP C): 10 | 16X Qizalofop-P CIPV4 (F1 hybrid maize plants; CTP C): 5 | 16X Qizalofop-P CIPV8 (F1 hybrid maize plants; CTP C): 20 | 4X Qizalofop-P CIPV4 (F1 hybrid maize plants; no CTP): 2.5 | 4X Qizalofop-P CIPV8 (F1 hybrid maize plants; no CTP): 10 | 8X Qizalofop-P CIPV4 (F1 hybrid maize plants; no CTP): 10 | 8X Qizalofop-P CIPV8 (F1 hybrid maize plants; no CTP): 22.5 | 16X Qizalofop-P CIPV4 (F1 hybrid maize plants; no CTP): 22.5 | 16X Qizalofop-P CIPV8 (F1 hybrid maize plants; no CTP): 37.5 | Relative Expression ([1]; CTP A): 7.80 | Relative Expression ([1]; CTP B): 5.95 | Relative Expression ([1]; CTP C): 3.82 | Relative Expression ([1]; no CTP): 4.31 | T1/2, temperature at which the enzyme activity was half of maximum [2]: 42 °C | T1/2 higher than the wild-type enzyme [2]: about 1 °C | 2X Quizalofop-P CIPV4 (transgenic maize plants; [3]): 0 | 2X Quizalofop-P CIPV8 (transgenic maize plants; [4]): 2.125 | 2X 2,4-D CIPV4 (transgenic maize plants; [5]): 0 | 2X 2,4-D CIPV8 (transgenic maize plants; [6]): 2.5 | 2X Quizalofop-P CIPV4 (transgenic maize plants; [7]): 0 | 2X Quizalofop-P CIPV8 (transgenic maize plants; [7]): 1.75 | 2X 2,4-D CIPV4 (transgenic maize plants; CTP B, 2 lb ae/acre at V4, V8): 0 | 2X 2,4-D CIPV8 (transgenic maize plants; CTP B, 2 lb ae/acre at V4, V8): 1.25 | 2X Quizalofop-P CIPV4 (transgenic maize plants; [8]): 0 | 2X Quizalofop-P CIPV8 (transgenic maize plants; [8]): 1.75 | 2X 2,4-D CIPV4 (transgenic maize plants; CTP C, 2 lb ae/acre at V4, V8): 1.25 | 2X 2,4-D CIPV8 (transgenic maize plants; CTP C, 2 lb ae/acre at V4, V8): 1.25 | 2X Quizalofop-P CIPV4 (transgenic maize plants; [9]): 0 | 2X Quizalofop-P CIPV8 (transgenic maize plants; [9]): 1.25 | 2X 2,4-D CIPV4 (transgenic maize plants; no CTP, 2 lb ae/acre at V4, V8): 0 | 2X 2,4-D CIPV8 (transgenic maize plants; no CTP, 2 lb ae/acre at V4, V8): 1.25

B2: MON-HT8: engineered oxygenase protein, amino acid sequence SEQ ID NO:37 (protein)
chain: B1 chain with S103G, F105V, A272S, A277G, G278N, K279A
4X Qizalofop-P CIPV4 (F1 hybrid maize plants; CTP A): 15 | 4X Qizalofop-P CIPV8 (F1 hybrid maize plants; CTP A): 15 | 8X Qizalofop-P CIPV4 (F1 hybrid maize plants; CTP A): 37.5 | 8X Qizalofop-P CIPV8 (F1 hybrid maize plants; CTP A): 35 | 16X Qizalofop-P CIPV4 (F1 hybrid maize plants; CTP A): 60 | 16X Qizalofop-P CIPV8 (F1 hybrid maize plants; CTP A): 50 | 4X Qizalofop-P CIPV4 (F1 hybrid maize plants; CTP B): 5 | 4X Qizalofop-P CIPV8 (F1 hybrid maize plants; CTP B): 7.5 | 8X Qizalofop-P CIPV4 (F1 hybrid maize plants; CTP B): 32.5 | 8X Qizalofop-P CIPV8 (F1 hybrid maize plants; CTP B): 35 | 16X Qizalofop-P CIPV4 (F1 hybrid maize plants; CTP B): 27.5 | 16X Qizalofop-P CIPV8 (F1 hybrid maize plants; CTP B): 30 | 4X Qizalofop-P CIPV4 (F1 hybrid maize plants; CTP C): 55 | 4X Qizalofop-P CIPV8 (F1 hybrid maize plants; CTP C): 45 | 8X Qizalofop-P CIPV4 (F1 hybrid maize plants; CTP C): 75 | 8X Qizalofop-P CIPV8 (F1 hybrid maize plants; CTP C): 55 | 16X Qizalofop-P CIPV4 (F1 hybrid maize plants; CTP C): 85 | 16X Qizalofop-P CIPV8 (F1 hybrid maize plants; CTP C): 72.5 | Relative Expression ([1]; CTP A): 8.06 | Relative Expression ([1]; CTP B): 7.62 | Relative Expression ([1]; CTP C): 4.87 | T1/2, temperature at which the enzyme activity was half of maximum [2]: 41 °C | temperature sensitivity compared with the wild-type enzyme ([2]; substrate 2,4-D, lower T1/2 than wild-type): slightly more temperature sensitive | 2X Quizalofop-P CIPV4 (transgenic maize plants; [3]): 0 | 2X Quizalofop-P CIPV8 (transgenic maize plants; [4]): 1.25 | 2X 2,4-D CIPV4 (transgenic maize plants; [5]): 1.75 | 2X 2,4-D CIPV8 (transgenic maize plants; [6]): 1.25 | 2X Quizalofop-P CIPV4 (transgenic maize plants; [7]): 0.75 | 2X Quizalofop-P CIPV8 (transgenic maize plants; [7]): 2.5 | 2X 2,4-D CIPV4 (transgenic maize plants; CTP B, 2 lb ae/acre at V4, V8): 0 | 2X 2,4-D CIPV8 (transgenic maize plants; CTP B, 2 lb ae/acre at V4, V8): 1.25 | 2X Quizalofop-P CIPV4 (transgenic maize plants; [8]): 0 | 2X Quizalofop-P CIPV8 (transgenic maize plants; [8]): 1.25 | 2X 2,4-D CIPV4 (transgenic maize plants; CTP C, 2 lb ae/acre at V4, V8): 1.25 | 2X 2,4-D CIPV8 (transgenic maize plants; CTP C, 2 lb ae/acre at V4, V8): 0
